This passage reports Reactivity (OD492) results from patent publication US9371374.

Holding throughout (experiment): EIA, captured mAb
Assay [1] has as its target biotinylated HCV core peptide 134-154 (Peptide 1) (HCV-1).
In assay [2] the target is biotinylated HCV core peptide 141-161 (Peptide 2) (HCV-1).
The target in assay [3] is biotinylated HCV core peptide 151-171 (Peptide 3) (HCV-1).

B1: HCV 208A-207 (antibody, V domains shown)
VH: QGQLQQPGAEFVKPGASLKLSCRASGYTFTSYWIHWVKQRPGQGLEWIGEIDPSDSYINQNQKFRGKATLTVDKSSSTAYMELSGLTSEDSAVYYCARHYYGVLDSWGQGTTLTVSS
VL: DIVLTQSPATLSVTPGDRVSLSCRASQRIYNYLHWYQQKSHESPRLLTKYASQSISGIPSRFSGSGSGTDFILTINSVETEDFGMYFCQQSNSWPLTFGAGTKLELRR
Regarding B1, the figures for the Reactivity (OD492) in assay [1], in assay [2] and in assay [3] were 1.24 OD, 0.17 OD and 0.08 OD, respectively.

B2: HCV 208A-638 (antibody, V domains shown)
VH: QGQLQQPGAEFVKPGASLKLSCRASGYTFTSYWIHWVKQRPGQGLEWIGEVDPSDSYINQNEKFRGKATLTVDKSSSTAYMQLGSLTSEDSAVYYCARHYYGVLDSWGQGTALTVSS
VL: QIVLTQSPTIMSASLGERVTMTCTASSSVSSSYLHWFQQKPGSSPKLWIYSTSNLASGVPPRFSGSGSGTSYSLSISSVEAEDVATYYCLQFHRSPWTFGGGAKLEIKR
As for B2, the results for the Reactivity (OD492) in assay [1], in assay [2] and in assay [3] were 0.07 OD, 2.96 OD and 0.09 OD, respectively.

B3: HCV 208A-422 (antibody, V domains shown)
VH: DVQLQESGPGLVNPSQSLSLTCSVTGYSITSGYYWIWIQQSPGNKLEWMGYIKYDGGNNYSPSLKNRISIARDTSKNQCFLKLNSVTIEDTATYYCTRGSDSFDYWGQGTTLTVSS
VL: DIVLTQSPASLAVSLGQRAIISCKASQSVSFAGTNLMHWYQQKPGQQPKLLIYRASNLETGVPTRFSGSGSRTDFTLNIHPVEEDDAATYYCQQSREYYTFGGGTKLEIKR
For the molecule B3, the Reactivity (OD492) was found to be 0.05 OD in assay [1], 0.84 OD in assay [2] and 0.1 OD in assay [3].

B4: HCV 208A-442 (antibody, V domains shown)
VH: DVQLQESGPGLVNPSQSLSLTCSVTGYSITSGYYWIWIRQFPGNKLEWMGYIKYDGGNNYSPSLKNRISIARDTSKNQFFLKLNSVTIEDTATYYCTRGSDSFDYWGQGTTLTVSS
VL: DIVLTQSPASLAVSLGQRAIISCKASQSVSFAGTNLMHWYQQKPGQQPKLLIYRASNLETGVPTRFSGSGSRTDFTLNIHPVEEDDAATYYCQQSREYYTFGGGTKLEIKR
For the molecule B4, the Reactivity (OD492) was 0.08 OD in assay [1], 3.04 OD in assay [2] and 0.06 OD in assay [3].

B5: HCV 208A-159 (antibody, V domains shown)
VH: QLQQSGPAQVKPGASVMISCKTSGYTFTENAMHWVKQSHGKSLEWIGGVNPNNGDTIFNQKFKDKAALTVDKSSSTAFMELRSLTSEESTVYYCVRRELDFFDYWGQGTSVTVSS
VL: DIVLTQSPASLAVSLGQRATISCRASQSVSTSRYSYVHWYQQKPGQPPKLLIKYAANLESGVPARFSGSGSGTDFTLNIHPVAEEDAAAYYCQHSWEFPFTFGSGTKLEIKR
With B5, the Reactivity (OD492) in assay [1] is 0.15 OD; in assay [2], 3.77 OD; in assay [3], 0.19 OD.

B6: HCV 208A-741 (antibody, V domains shown)
VH: QLQQSGPVLVKPGASVMISCKTSGYTFTENAMHWVKQSHGKSLEWIGGVNPNNGDTIFNQKFKGKATLTVDKSSSTAFMELRSLTSEESTVYYCVRRELDFFDYWGQGTSVTVSS
VL: DIVLTQSPASLAVSLGQRTTISCGASQSVSTSRFSYMHWYQQKPGQPPKLLIKYASNLESGVPARFSGSGSGTDFTLNIHPVAEEDTAAYYCQHSWEFPFTFGSGTKLEIKR
Take B6: the figures for the Reactivity (OD492) in assay [1], in assay [2] and in assay [3] were 1.2 OD, 3.37 OD and 0.06 OD, respectively.

B7: HCV 208A-877 (antibody, V domains shown)
VH: QLQQSGPELVKPGASVKISCKTSGYTFTENAMHWVKQSRGKSLEWIGGVNPNNGDTVYTQKFKGKATLTVAKSSSTAYMELRTMTCEESTVYYCASREPDFFDYWGQGSSVTVSS
VL: QIVLTQSPAIMSVSPGEKVSMTCSASSSVTYMHWYQQKSGTSPKRWIYDTSELASGVPARFSGSGSGTTYSLTISSMEAEDAATYYCQQWSNKPLTFGAGTKLELKR
In the case of B7, the Reactivity (OD492) in assay [1] is 0.06 OD; in assay [2], 1.21 OD; in assay [3], 0.05 OD.

B8: HCV 208A-1064 (antibody, V domains shown)
VH: EVQLQQSGPELVKPGASVKISCKTSGYTFTEYAMHWMKQSHGKSLEWIGGINPTNGDTIYNQKFKDKAKLTVDRSSSTAYMELRSLTSDDSALFYCARRELDYFASWGQGTTLTVSS
VL: DIVLTQSPASLIVSLGQTATISCRASQSVSTSRFSYLHWIQQKPGQPPKLLIKYASNLESGVPVRFSGSGSGTDFTLNIHPVEEEDTATYFCQHSWEFPFTFGSGTKLKIKR
On to B8, for which the Reactivity (OD492) worked out at 0.1 OD in assay [1], 3.5 OD in assay [2] and 0.12 OD in assay [3].

B9: HCV 208A-222 (antibody, V domains shown)
VH: EVQLQQSGPELEKPGASVRISCKTSGYTFTEYAMHWVKQSHGKSLEWIGGINPNNGNAIYNQIFKDKATLTVDRSSSTAYMGLRSLTFGDSGVYFCVRRQLDYFDYWGQGASLTVSS
VL: DIVVTQSPASLAVSLGQRATISCRASQSVSTSRYSYLHWYQQKPGQPPKLLIKYASNLESGVPARFSGSGSGTDFTLNIHPVGEEDTATYYCQHSWEFPFTFGSGTKLEIKR
For the molecule B9, the values for the Reactivity (OD492) in assay [1], in assay [2] and in assay [3] were 0.06 OD, 2.7 OD and 0.08 OD, respectively.

B10: HCV 208A-126 (antibody, V domains shown)
VH: QLQQSGPVLVKPGASVMISCKTSGYTFTENAMHWVKQSHGKSLEWIGGVNPNNGDTIFNQKFKGKATLTVDKSSNTAFTELRSLPSEESTVYYCVRRGLDFFDYWGQGTSVTVSS
VL: DIVLTQSPASLAVSLGQRATISCRASQSVSTSRYSYMHWYQQKPGQPPKLLIKYASNLESGVPARFSGSGSGTDFTLNIHPVAEEDTAAYYCQHSWEFPFTFGSGTKLEIKR
For B10, the Reactivity (OD492) in assay [1] stood at 0.2 OD; in assay [2], 2.08 OD; in assay [3], 0.1 OD.

B11: HCV 208A-605 (antibody, V domains shown)
VH: EVQLQQSGPELEKPGASVKISCKTSGYTFTEYAIHWVKQSHGMSLEWIGGINPSNGNAIYNQIFKDKATLTVDRSSSTAYMGLRSLTFGDSGVYFCVRRQLDFFDYWGQGASLTVSS
VL: DIVVTQSPASLAVSLGQRATISCRASQSVSTSRYSYLHWYQQKPGQPPKLLIKYASNLESGVPARFSGSGSGTDFTLNIHPVGEEDTATYYCQHSWEFPFTFGSGTKLEIKR
On to B11, for which the figures for the Reactivity (OD492) in assay [1], in assay [2] and in assay [3] were 0.22 OD, 3.71 OD and 0.16 OD, respectively.

B12: HCV 208A-133 (antibody, V domains shown)
VH: QLQQSGPVLVGPGASVMISCKTSGYTFTENAMHWVEQSHGKSLEWIGGVNPNNGDTIFNQKFKGKATLTVDKSSSTAFMEFRSLTSEESTVYYCVRRELDFFDYWGQGTSVTVSS
VL: DIVLTQSPASLAVSLGQRATISCRASQSVSTSRYSYMHWYQQKPGQPPKLLIKYASNLESGVPARFSGSGSGTDFTLNIHPVAEEDTATYYCQHSWEFPFTFGSGTKLEIKR
As to B12, the Reactivity (OD492) in assay [1] stood at 0.1 OD; in assay [2], 3.68 OD; in assay [3], 0.13 OD.

B13: HCV 208A-293 (antibody, V domains shown)
VH: EVQLQQSGPELVKPGASVKISCKASGFTFTEYAMHWMKQSHGKSLEWIGGINPTNGDAIYNQKFKDKAKLTVDRSSSTAYMELRSLTSDDSALFYCARRELDYFPSWGQGTTLTVSS
VL: DIVLTQSPASLIVSLGQRATISCRASQSVSTSRFSYVHWIQQKPGQPPKLLIKYASNLESGVPVRFSGSGSGTDFILNIHPVEEEDTATYFCQHSWEFPFTFGSGTKLEIKR
Take B13: the values for the Reactivity (OD492) in assay [1], in assay [2] and in assay [3] were 0.08 OD, 2.42 OD and 0.11 OD, respectively.

B14: HCV 208A-830 (antibody, V domains shown)
VH: EVRLQQPGPEVEKPGASVKISCKTSGYTFTEYAIHWVKQSHGESLEWIGGINPSNGDPIYNQIFKDKATLTVDRSSNTAYMGLRSLTVGDSGVYFCVRRQLDYFDFWGQGASLTVSS
VL: DIVLTQSPASLAVSLGQRATISCRSSQSVSTSRYSYLHWYQQKPGQPPKLLIKYASNLESGVPARFSGSGSGTDFTLNIHPVGEEDPATYYCQHSWEFPFTFGSGTKLEIKR
On to B14, for which the values for the Reactivity (OD492) in assay [1], in assay [2] and in assay [3] were 0.07 OD, 2.88 OD and 0.08 OD, respectively.

B15: HCV 208A-134 (antibody, V domains shown)
VH: QGQMQQSGAELAKPGASVKLSCKTSGFTFSSSYISWLKQKPGQSLEWIAWIYAGTGNTNYNQKFTDKAQLTVDTSSSTAYMQLSSLTTEDSAIYYCAISGTGFTYWGQGTLVTVSA
VL: EVLMTQSPLSLPVSLGDQASISCRSSQSLEHTNGNTYLEWFLQRPGQPPKLLIYKVSSRFSGVPDRFSGSGSGTDFTLKISRVEAEDLGVYYCFQGSHVPFTFGSGTKLAIKR
Regarding B15, the Reactivity (OD492) in assay [1] turned out to be 2.06 OD; in assay [2], 0.08 OD; in assay [3] it was 0.06 OD.

B16: HCV 208A-557 (antibody, V domains shown)
VH: QGQMQQSGAELVKPGASVKLSCKTSGFTFSSSYISWLKQKPGQSLEWIAWIYAGTGNTNYNQKFTDKAQLTVDTSSSTAYMQLSSLTTEDSAIYYCAISGTGFTYWGQGTLVTVSA
VL: DIALTQSPASLAVSLGQRATISCRASQSVSTSRYSYMHWYQQKPGQPPELLIKYASNLESGVPARFSGSGSGTDFTLNIHPVGEEDTATYYCQHSWDFPFTFGSGTKLEIKR
As to B16, the Reactivity (OD492) stood at 0.05 OD in assay [1], 2.41 OD in assay [2] and 0.06 OD in assay [3].

B17: HCV 208A-352 (antibody, V domains shown)
VH: QGQMQQSGAELVKPGASVKLSCKTSGFTFSSSFISWLKQKPGQSLEWIAWIYAGTGNTNYNQKFTDKAQLTVDTSSSTAYMQFSSLTTEDSAIYYCAISGTGFTYWGQGTLVTVSA
VL: DVLMAQTPLSLPVTLGDQASISCRSSQSLVHSNGNTYLEWFLQKPGQSPKLLIYNVSNRFSGVPDRFSGSGSGTDFTLKISRVEAEDLGVYYCFQGSHVPLTFGSGTKLEIKR
Regarding B17, the Reactivity (OD492) in assay [1] was 1.08 OD; in assay [2] it was 0.07 OD; in assay [3], 0.06 OD.

B18: HCV 208A-210 (antibody, V domains shown)
VH: QVQLQQSGPELVKPGASMRISCKASGYTFTSYYVHWIKQRPGQGLEWIGCIYPGDVNTDYNEKFKGKATLTADKSSSTAYMQVSTLTSEDSAIYFCVLYYYGSFAYWGQGTLVTVSA
VL: EIVLTQSPAITAASLGQNVTITCRASSSVSYMHWYRQKSGTSPQLWIYEISRRASGVPARFRASGSGTSYSLTISSMEAEDAAIYYCQQWNYPLTFGAGTKLEVKR
As to B18, the Reactivity (OD492) was 0.06 OD in assay [1], 1.15 OD in assay [2] and 0.05 OD in assay [3].
